Source: paper PMC9601964

Target: T1, RihR (XRE-family regulator) (Azorhizobium caulinodans ORS571) (UniProt A8IKA5)
T1 sequence: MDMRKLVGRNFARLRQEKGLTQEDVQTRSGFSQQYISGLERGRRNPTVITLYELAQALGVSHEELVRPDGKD
Assay: EMSA
Details: 50 mM Tris-HCl pH 8.3, 0.25 M KCl, 2.5 mM DTT, 5 mM MgCl2, 0.25 mg/mL BSA, 0.05 mg/mL poly(dI-dC), 2.5 mM EDTA, 1% glycerol; 20 uL, 20 min, room temperature; 6%

Question: For “CGGAATTCATCGCGGTGGTATTTTTGCGAGGAAGGCCGCGTTGGAAAACGATAGTCGGTGCTCGTTCATGCCGGCAAATGAGAAGATCGCCCATAGGTATGCAAAAATGATATGATAACAGCTGACCAGCTTTAGCCCGTGCGGACGAGGGGGAGAGGATGCGTTTCAGTCATCTAGAGC (double strand) [non-specific control promoter (Pcontrol)]”, which binding is on record?
Answer: no binding
